# Positions count from the first letter of the chain named. In names and notes the source's numbering stands.
# B1: ABC: P450BM3 variant: C400S (protein, listed as Bacillus megaterium)
# chain: TIKEMPQPKTFGELKNLPLLNTDKPVQALMKIADELGEIFKFEAPGRVTRYLSSQRLIKEACDESRFDKNLSQALKFVRDFAGDGLFTSWTHEKNWKKAHNILLPSFSQQAMKGYHAMMVDIAVQLVQKWERLNADEHIEVPEDMTRLTLDTIGLCGFNYRFNSFYRDQPHPFITSMVRALDEAMNKLQRANPDDPAYDENKRQFQEDIKVMNDLVDKIIADRKASGEQSDDLLTHMLNGKDPETGEPLDDENIRYQIITFLIAGHETTSGLLSFALYFLVKNPHVLQKAAEEAARVLVDPVPSYKQVKQLKYVGMVLNEALRLWPTAPAFSLYAKEDTVLGGEYPLEKGDELMVLIPQLHRDKTIWGDDVEEFRPERFENPSAIPQHAFKPFGNGQRASIGQQFALHEATLVLGMMLKHFDFEDHTNYELDIKETLTLKPEGFVVKAKSKKIPLGGIPSPSTEQSAKKVRKKAENAHNTPLLVLYGSNMGTAEGTARDLADIAMSKGFAPQVATLDSHAGNLPREGAVLIVTASYNGHPPDNAKQFVDWLDQASADEVKGVRYSVFGCGDKNWATTYQKVPAFIDETLAAKGAENIADRGEADASDDFEGTYEEWREHMWSDVAAYFNLDIENSEDNKSTLSLQFVDSAADMPLAKMHGAFSTNVVASKELQQPGSARSTRHLEIELPKEASYQEGDHLGVIPRNYEGIVNRVTARFGLDASQQIRLEAEEEKLAHLPLAKTVSVEELLQYVELQDPVTRTQLRAMAAKTVCPPHKVELEALLEKQAYKEQVLAKRLTMLELLEKYPACEMKFSEFIALLPSIRPRYYSISSSPRVDEKQASITVSVVSGEAWSGYGEYKGIASNYLAELQEGDTITCFISTPQSEFTLPKDPETPLIMVGPGTGVAPFRGFVQARKQLKEQGQSLGEAHLYFGCRSPHEDYLYQEELENAQSEGIITLHTAFSRMPNQPKTYVQHVMEQDGKKLIELLDQGAHFYICGDGSQMAPAVEATLMKSYADVHQVSEADARLWLQQLEEKGRYAKDVWAG
# modifications: cytochrome P450NADPH-P-450 reductase precursor, cytochrome P450 (BM3), CYP102A1
# notes: P450BM3 variant: C400S
# B2: WT-AxH: WT heme domain + C400H (protein)
# chain: TIKEMPQPKTFGELKNLPLLNTDKPVQALMKIADELGEIFKFEAPGRVTRYLSSQRLIKEACDESRFDKNLSQALKFVRDFAGDGLFTSWTHEKNWKKAHNILLPSFSQQAMKGYHAMMVDIAVQLVQKWERLNADEHIEVPEDMTRLTLDTIGLCGFNYRFNSFYRDQPHPFITSMVRALDEAMNKLQRANPDDPAYDENKRQFQEDIKVMNDLVDKIIADRKASGEQSDDLLTHMLNGKDPETGEPLDDENIRYQIITFLIAGHETTSGLLSFALYFLVKNPHVLQKAAEEAARVLVDPVPSYKQVKQLKYVGMVLNEALRLWPTAPAFSLYAKEDTVLGGEYPLEKGDELMVLIPQLHRDKTIWGDDVEEFRPERFENPSAIPQHAFKPFGNGQRAHIGQQFALHEATLVLGMMLKHFDFEDHTNYELDIKETLSLKPKGFVVKAKSKKIPLGGIPSPST
# modifications: synthetic cytochrome P450-BM3 variant WT-AxH (heme)
# notes: WT heme domain + C400H
# B3: WT-AxM: WT heme domain + C400M (protein)
# chain: B2 chain with H400M
# modifications: synthetic cytochrome P450-BM3 variant WT-AxM (heme)
# notes: WT heme domain + C400M
# B4: WT-AxN: WT heme domain + C400N (protein)
# chain: B2 chain with H400N
# modifications: synthetic cytochrome P450-BM3 variant WT-AxN (heme)
# notes: WT heme domain + C400N
# B5: WT-AxK: WT heme domain + C400K (protein)
# chain: B2 chain with H400K
# modifications: synthetic cytochrome P450-BM3 variant WT-AxK (heme)
# notes: WT heme domain + C400K
# What was measured:
# [1] = Small-scale anaerobic C—H amination with purified enzymes, azide 1; assay type: biochemical
# Procedure: Activities are presented in TTN. […] Yields and enantioselectivies determined by HPLC analysis. * (S−R)/(S+R). nd=not determined.
# Enzymes used as purified catalysts were expressed as previously described (Lewis, J. C. et al., Proc. Natl. Acad. Sci. U.S.A. 106, 16550-16555 (2009)), and were purified by anion-exchange chromatography (for holoenzymes) or Ni-NTA chromatography (for isolated heme domains). Concentrations of P450 or P411 enzymes were determined as previously reported (Omura, T. & Sato, R., J. Biol. Chem. 239, 2370-2378 (1964); Vatsis, K. P. et al., J. Inorg. Biochem. 91, 542-553 (2002)). Small-scale reactions (400 μL) were conducted in 2 mL crimp vials containing degassed buffer (0.1 M potassium phosphate pH 8.0), enzyme (0.1-0.5% catalyst loading) and oxygen depletion system (10× stock solution containing 14,000 U/mL catalase, 1,000 U/mL glucose oxidase dissolved in 0.1 M KPi pH 8.0). Enzyme (P450 or P411) solution and oxygen depletion mixture were added to the vial with a small stir bar before crimp-sealing. […] Reactions were stirred at room temperature for 24 h under positive argon pressure.
# Small-scale reactions (400 μL) were conducted in 2 mL crimp vials (Agilent Technologies, San Diego, Calif.) containing buffer (0.1 M potassium phosphate pH 8.0), enzyme (0.1-0.5% catalyst loading) and oxygen depletion system (10× stock solution containing 14,000 U/mL catalase, 1,000 U/mL glucose oxidase dissolved in 0.1 M KPi pH 8.0). Enzyme (P450 or P411) solution and oxygen depletion mixture were added to the vial with a small stir bar before crimp-sealing. […] In the meantime, the headspace of the sealed 2 mL reaction vial with the P450 solution was made anaerobic by flushing argon over the protein solution (with no bubbling). The buffer/reductant/glucose solution (270 μL) was syringed into the reaction vial with continuous argon purge of the vial headspace. An arylsulfonyl azide solution in DMSO (10 μL, 80 mM) was added to the reaction vial via a glass syringe, and the reaction was left stirring for 24 h at room temperature under positive argon pressure. […] Reactions were quenched by adding 30 μL 3 M HCl under argon. To the vials were then added acetonitrile (430 uL) and internal standard (o-toluenesulfonamide 10 mM in 50% acetonitrile 50% water, 1 mM final concentration). This mixture was then transferred to a microcentrifuge tube, and centrifuged at 17,000×g for 10 minutes. A portion (20 μL) of the supernatant was then analyzed by HPLC. For LC-MS analysis, the quenched reaction mixture was extracted twice with ethyl acetate (2×350 μL), dried under a light argon stream and resuspended in 50% water-acetonitrile (100 μL). For chiral HPLC the reactions were extracted as above with ethyl acetate, dried and resuspended in DMSO (100 μL) and then C18 purified as described above. The C18 purified material was dried, and resuspended in acetonitrile, and then injected onto the chiral HPLC system for analysis. Sultam formation was quantified comparison of integrated peak areas of internal standard and sultam at 220 nm to a calibration curve made using synthetically produced sultam and internal standard.
# Purified enzymes were screened for activity in small scale reactions (400 μL) under anaerobic conditions as described above. Reactions were carried out using 0.5% mol of enzyme (10 μM) with respect to the triethylsulfonyl azide substrate 1 (2 mM). Standard reaction conditions described above were employed. Diethyl benzosultam product 3 (FIG. 18) was analyzed and quantified by reversed-phase HPLC (see above).
# Small-scale reactions (400 μL total volume) were set up and worked up. Control reactions were performed with both the holoenzyme (BM3 with covalently linked reductase domain) and the isolated heme domain. […] Reactions of the complete system with heme domain (CS heme) included 2 mM Na2S2O4 rather than NADPH unless otherwise indicated in the table. […]
# [2] = Whole-cell C—H amination of azide 1; assay type: cell-based, E. coli BL21(DE3); details: intact E. coli cells
# Procedure: Reaction conditions were as follows: 2 mM azide 1, 25 mM glucose, E. coli BL21(DE3) cells in M9-N minimal medium (OD600=30), 2.5% DMSO, oxygen depletion system (100 U ml^−1 glucose oxidase, 1400 U ml^−1 catalase) reacted for 24 hours under anaerobic conditions at 298 K. Yields determined by HPLC quantification.
# (§1) Whole cell reactions used E. coli BL21(DE3) cells containing P450 or P411 catalysts, which were expressed and prepared as described elsewhere (Coelho, P. S. et al., Highly efficient carbene transfer to olefins catalyzed in vivo. Submitted (2013)). Following expression, cells were resuspended to an OD600 of 30 in M9 salts lacking NH4Cl (M9-N), and then degassed by sparging with argon in a sealed 6 mL crimp vial for at least 0.5 h. Separately, glucose (250 mM dissolved in 1×M9-N, 40 μL, or multiples thereof) was degassed by sparging with argon for at least five minutes. The oxygen quenching mixture was added to sealed 2 mL crimp vials containing stir bars and the headspace of the vials was purged with argon for five minutes at which time glucose, and then cells were added by syringe. Substrate (80 mM arylsulfonyl azide, 10 uL in DMSO) was added via syringe, and the reactions were stirred at room temperature for 24 h under positive argon pressure.
# as §1, with “E.” for “Whole cell reactions used E.”, “catalysts” for “catalysts, which”, “Coelho,” for “(Coelho,”, “μL” for “uL”, “pressure. Reactions were quenched in a manner identical to reactions containing purified enzymes as described above. For chiral HPLC, the reactions were extracted and purified in an identical manner as for reactions that employed purified enzymes. Lyophilized intact cells containing sucrose as a cryoprotectant were prepared as described elsewhere (Coelho, P. S. et al., Highly efficient carbene transfer to olefins catalyzed in vivo. Submitted (2013)). The resulting cell powder, containing expressed ABC-CIS (26 mg) were added along with a stir bar to a 2 mL crimp vial and then sealed. The headspace of the vial was degassed, oxygen quenching system (40 μL) was added via syringe, followed by degassed glucose (250 mM, 40 μL), M9-N (310 μL), and finally substrate (80 mM 1, 10 μL). Lyophilized cell reactions were stirred for 24 h at room temperature, then quenched and analyzed as described above. […]” for “pressure.”
# The preparative reaction was scaled up proportionally from small-scale reactions. E. coli BL21 cells containing ABC-CIS (OD600 30, 90 mL in M9-N) were sparged with argon for 45 minutes in a round bottom flask (250 mL) containing a stir bar. Separately, glucose solution (250 mM, 11.6 mL) was sparged with argon in a conical flask. The oxygen quenching mixture (10×, 11.6 mL) was degassed in a conical flask that was placed under high vacuum until slight foaming occurred (1-2 s) and then back-filled with argon; this sequence was repeated several times. Sparged glucose solution was then added to the anaerobic cell suspension via syringe, followed by the oxygen quenching system. Finally, substrate 1 (80 mM, 2.9 mL DMSO) was added dropwise via syringe, and the reaction was stirred for 24 h at room temperature. To quench the reaction, dilute HCl (3 M, 8.7 mL) and acetonitrile (125 mL) were added. […]
# [3] = Intramolecular carbene C—H insertion, substrate 4.1a; assay type: biochemical; details: 10 mM 4.1a, 10 uM P450, 10 mM Na2S2O4; product 4.2a
# Procedure: Yield of product 4.22b was established after calibration with phenethyl alcohol as an internal standard. The reaction is not catalyzed by the WT-BM3 heme domain or hemin at 5% catalyst loading.
# A representative procedure for P450-catalyzed C—H insertion is as follows: A vial containing WT-AxD (20 μL, 200 μM) was sealed with a teflon cap and the headspace of this vial was purged with argon for 5 min. Concurrently, a solution of sodium dithionite (11 mM in phosphate buffer pH=8) was degassed for a minimum of 5 min and 360 μL of this solution was transferred to the vial containing protein. The gas lines were disconnected from the vials. The substrate 4.1a or 4.1b was then added as a solution (20 μL, 200 mM). Final concentrations of all components were: 10 uM enzyme, 10 mM substrate, and 10 mM dithionite. […]
# The mixture was extracted with 1 mL cyclohexane and analyzed by GC-MS or GC. GC-MS was performed on a Shimadzu TQ8030 GC-MS with ion count detector and J&W HP-5 column (30 m×0.32 mm, 0.25 μm film) using the following method: 90° C. (hold 2 min), 90-190° C. (20° C./min), and 190-230 (40° C./min)
# [4] = OD600=30, 2 mM azide 1, 24 hours, anaerobic
molecule,measurement,setting,value
B1,TTN,"[1]; 0.1 mol % catalyst loading (2 μM), 2 mM azide 1, 2 mM NADPH, benzosultam 3",32
same,% ee,"[1]; 0.1 mol % catalyst loading, (S−R)/(S+R), benzosultam 3",20%
same,TTN (C—H amination product 3),"[1]; catalyst loading 0.5 mol %, NADPH, anaerobic",49
same,Yield sulfonamide (%),[2]; [4],80%
same,Yield sultam (%),[2]; [4],6.7%
same,TTN,"[2]; anaerobic, added glucose",29
same,% ee,[2]; (S − R)/(S + R),16%
B2,Yield %,[3],0%
B3,Yield %,[3],0%
B4,Yield %,[3],0%
B5,Yield %,[3],0%
